The record followed here is the nanobody polyreactivity screen of Harvey et al. (2022).

This data set in a line: yeast display, Sf9 membrane polyspecificity reagent, FACS + sequencing; frameworks hold sequencing errors. The method in brief:
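Using colony PCR, genes from sorted yeast display clones were amplified, then sequenced on MiSeq at 2 × 250 and filtered by CDR length. The clones had been stained with 10% biotinylated, detergent-solubilized Sf9 membrane reagent for 1 hour at 4 °C and sorted by FACS into low and high (top ~1%) gates on anti-HA and streptavidin fluorescence. Polyreactivity labels come from the gate of origin.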
Turning to “QVQLVESGGGLVQAGGSLRLSCAASGRIFQRYAMGWYRQSPGKERELVAGITSSGGSTYYADSVKGRFTISRDNAKNTVYLQMNSLKPEDTAVSYCNAGGELCYYGYRAGCTTRSYDYWGQGTLVTVSS”, the “polyreactivity (PSR sort gate)” value is “low polyreactivity”. With “QVQLVESGGGLVQAGGSLRLSCAASGRIFQSYAMGWYRQAPGKERELVAGISTRGGNTYYADSVKGRFTISRDNAKNTVYLQMNSLKPEDTAVYYCAKRDYGRFASDYWGQGTQVTVSS” the entry was “high polyreactivity”. On to “QVQLVESGGGLVQAGGSLRLSCAASGRIFQWYAMGWNRQAPGKERELVAAISWRGGSTYYADSVKGRFTISRDNAKNTVYLQMNSLKPEDTAVYYCNAVRRASSGYDYWGHGTQVTVSS”, for which the “polyreactivity (PSR sort gate)” value is “high polyreactivity”. “QVQLVESGGGLVQAGGSLRLSCAASGRIFQYNAMGWYRQAPGKERELVAAIRRGGGSTYYADSVKGRFTISRDNAKNTVYLEMNSLKPEDTAVYYCAARRIRVSFYPEYDYWGQGTQVTVSS”: the “polyreactivity (PSR sort gate)” value was “low polyreactivity”.

As for “QVQLVESGGGLVQAGGSLRLSCAASGRIFQYNAMGWYRQAPGKERELVAAIRRGGGSTYYADSVKGRFTISRDNAKNTVYLQMNSLKPEDTAVYYCADRRQRVSFYPEYDYWGQGTQVTVSS”, the “polyreactivity (PSR sort gate)” value is “low polyreactivity”. With “QVQLVESGGGLVQAGGSLRLSCAASGRIFQYYAMGWYRQAPGKEREFVAAITGRGTRTYADSVKGRFTISRDNAKYTVYLQMNSLKPEDTAVYYCAKPFHYGRSYRSKMDYWGQGTQVTVSS” the entry was “high polyreactivity”; with “QVQLVESGGGLVQAGGSLRLSCAASGRIFQYYAMGWYRQAPGKERELVAAITRSGGRTYYADSVKGRFTISRDNAKNTVFLQMNSLKPEDTAVYYCAARDWYYTMYYWGQGTQVTVSS”, “high polyreactivity”; with “QVQLVESGGGLVQAGGSLRLSCAASGRIFQYYVMGWYRQAPGKERELVAAIRSGGTTNYADSVKGRFTISRDNAKNTVYLQMNSLKPEDTAVYYCNARYRNTFYTRRYAYWGQGTQVTVSS”, “high polyreactivity”. With “QVQLVESGGGLVQAGGSLRLSCAASGRIFRANAMGWYRQAPGKERELVAGISYRGGSTYYADSVKGRFTISRDNAKNTVYLQMNSLKPEDTAVYYCAVRSSPELRYHYEYWGQGTQVTVSS” the entry was “low polyreactivity”. The same measure for “QVQLVESGGGLVQAGGSLRLSCAASGRIFRANAMGWYRQAPGKERELVAGITRRGGSTNYADSVKGRFTISRDNAKNTVYLQMNSLKPEDTAVYYCNRDVSLSTSIRMDYWGQGTQVTVSS”: “low polyreactivity”. For the sequence “QVQLVESGGGLVQAGGSLRLSCAASGRIFRAYTMGWYRQAPGKARELVAAISRSTGSTNYADSVKGRFTISRDNAKNTVYLQMNSLKPEDTAVYFCNARSRWYLVGQQSTRLDYWGQGTQVTVSS”, the “polyreactivity (PSR sort gate)” value is given as “high polyreactivity”.

As to “QVQLVESGGGLVQAGGSLRLSCAASGRIFRFYAMGWYRQAPGKERELVAAITRNVGSTFYADSVKGRFTISRDNAKNTVYLQMNSLKPEDTAVYYCAAESDYYYRYTFDYWGQGTLVTVSS”, the “polyreactivity (PSR sort gate)” value is given as “low polyreactivity”. In the case of “QVQLVESGGGLVQAGGSLRLSCAASGRIFRFYAMGWYRQAPGKERVLVAAITRNVGSTFYADSVKGRFTISRDNAKNTVYLQMNSLKPEDSAVFYCAAESDYYYRYTFDYWGQGTQVTVSS”, the “polyreactivity (PSR sort gate)” value is given as “low polyreactivity”.

Regarding “QVQLVESGGGLVQAGGSLRLSCAASGRIFRGNAMGWYRQAPGKERELVAAILTGVSTYYADSVKGRFTISRDNAKNTVYLQMNSLNPEDTAVYYCADERPSRRSVYEYWGQCTQVTVSS”, the “polyreactivity (PSR sort gate)” value was “low polyreactivity”.

As to “QVQLVESGGGLVQAGGSLRLSCAASGRIFRGNAMVWSRQAPGKERELVASISWRGASTDYADSVKGRFTISRDNAKNTVYLQMNRMKPEDTAVYYCAARVVWRISVYYVIDYNYWGQGTQVTVSS”, the “polyreactivity (PSR sort gate)” value is reported as “high polyreactivity”.

Consider “QVQLVESGGGLVQAGGSLRLSCAASGRIFRGNGMGWYRQAPGKERELVAAIRRSGGSTYYADSVKGRFTISRDNAKNTVYLQMNSLKPDDTAVFYCNADYTVVLSRVIYARGYWGQGTQVTVSS”, for which the “polyreactivity (PSR sort gate)” value is recorded as “high polyreactivity”. The same measure for “QVQLVESGGGLVQAGGSLRLSCAASGRIFRGNVMGWYRQAPGKERELVAAINSGASSNYADSVKGRFTISRDNAKNTVYLQMNSLKPEDTAVYYCAKRGPRSYFQPCYDYWGQGTQVTVSS”: “high polyreactivity”. With “QVQLVESGGGLVQAGGSLRLSCAASGRIFRGYAMGLYRQAPGKEREFVAAISWSGGDTYYADSVKGRFTISRDTAKNTVYLQMNSLKPEDTAVYYCATEYRLIPGPFVWPYDYWGQGTQVTVSS” the entry was “high polyreactivity”. The same measure for “QVQLVESGGGLVQAGGSLRLSCAASGRIFRGYAMGWYRQAPGKERELVAAISGSGGSTYYADSVKGRFTISRDNAKNTVYLQMMSLKPEDTAVYYCAADQQSTGDWAGDYWGQGTQVTVSS”: “low polyreactivity”; for “QVQLVESGGGLVQAGGSLRLSCAASGRIFRGYAMGWYRQAPGKERELVARITSSGSTNYADSVKGRFTISRDNAKNTVYLQMNSLKPEDTAVYYCAADKYYWGTGVWMDYWGQGTQVTVSS”: “high polyreactivity”; for “QVQLVESGGGLVQAGGSLRLSCAASGRIFRGYVMGWYRQAPGKERELVAITIGAGRTYYADSVKGRFTISRDNAKNTVYLQMISLKPEDTAVYYFAVRLYANSGRFDYWGQGTQVTVSS”: “low polyreactivity”. “QVQLVESGGGLVQAGGSLRLSCAASGRIFRHNPMGWYRQAPGKERELVAAITSRGGTYYADSVKGRFTISRDNAKNTVYFQMNSVKPEDTAVYYCAADRPIYPYPGKGFRYDYWGQGTQVTVSS”: the “polyreactivity (PSR sort gate)” value was “low polyreactivity”. Turning to “QVQLVESGGGLVQAGGSLRLSCAASGRIFRHNTMGWYRQAPGKERELVAGITASGGDTYYADSVKGRFTISRDNAKNTVYLDMNSLKPEDTAVYYCATSQYGYRSWPGLYYWGQGTQVTVSS”, the “polyreactivity (PSR sort gate)” value is given as “low polyreactivity”. With “QVQLVESGGGLVQAGGSLRLSCAASGRIFRINAMGWYRQAPGKERELVASISRRGGNTYYADSVKGRFTISRDNAKNTVYLQMNSLKPEDTAVYYCAADTNQERTFYYWGQGTQVTVSS” the entry was “low polyreactivity”; with “QVQLVESGGGLVQAGGSLRLSCAASGRIFRINAMGWYRQAPGKERELVASITSRAGSTYYADSVKGRFTISRDNAKNTVYLQMTSLKPEDTAVYDCAARSVYTYYRLDYWGQGSQVTVSS”, “high polyreactivity”. With “QVQLVESGGGLVQAGGSLRLSCAASGRIFRINTMGWNRQAPGKERELVAAIRTSGSSTYADSVKGRFTISRDNAKNTVYLQMNSLKPEDTAVYYCNTKYPGRGYYWGQGTQVTVSS” the entry was “high polyreactivity”; with “QVQLVESGGGLVQAGGSLRLSCAASGRIFRIYAMGWYIQAPGKERELVARITYSVGSTYYADSVKGRFTISRDNEKNSVFLQMNSLKPEDTSVYYCAADWLGYQYGYWGQGSQVTVSS”, “low polyreactivity”. In the case of “QVQLVESGGGLVQAGGSLRLSCAASGRIFRKYTMGWYRQAPGKERELVAAISARGGSTYYADSVKGRFTISRDNAKNTVYLQMNSLKPEDTAVYYCTTSPIGNITYRYDYWGQGTQVTVSS”, the “polyreactivity (PSR sort gate)” value was “high polyreactivity”. The same measure for “QVQLVESGGGLVQAGGSLRLSCAASGRIFRLYALGWDRQAPGKERELVATITSGGTYYADSVKGRFTISRDNAKNTVYLQMNSLKPEDTAVYYCAAHSGSTYKYWGQGTQVTVSS”: “low polyreactivity”. With “QVQLVESGGGLVQAGGSLRLSCAASGRIFRLYAMGWYRQAPGKEREFVATITWIGGRTYYADSVKGRFTISRDNAKNTVYLQMNSLKPEDTAVYYCAADPGYTYEYWGQGTQVTVSS” the entry was “low polyreactivity”.
